Measurements published in article PMC12088383.

Molecular target: GST-OGG1F319A (Homo sapiens, UniProt O15527 1-345, F319A)
Experiment: EMSA

Sequence of GST-OGG1F319A (O15527 whole entry F319A): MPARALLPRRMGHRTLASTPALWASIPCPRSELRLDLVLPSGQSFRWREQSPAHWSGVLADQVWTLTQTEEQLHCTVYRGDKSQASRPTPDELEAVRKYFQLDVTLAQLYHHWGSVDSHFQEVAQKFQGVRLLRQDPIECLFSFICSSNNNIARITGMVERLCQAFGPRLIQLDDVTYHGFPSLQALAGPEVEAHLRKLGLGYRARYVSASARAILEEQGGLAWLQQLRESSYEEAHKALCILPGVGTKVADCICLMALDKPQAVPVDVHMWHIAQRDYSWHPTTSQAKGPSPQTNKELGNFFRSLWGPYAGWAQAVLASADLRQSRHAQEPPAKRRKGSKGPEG

B1: 8-oxoGua duplex probe (Table S1) (dsDNA)
DNA 1: AGAGAAGAAGAAGAAGAAGAGATGGGTTATTCGAACTAGC
DNA 2: GCTAGTTCGAATAACCCATCTCTTCTTCTTCTTCTTCTCT
modifications: 8-oxoguanine at position 19 of strand 1 (printed X, written as G)
  binding result: no binding
